From patent publication US20100135904A1 (RESEARCH DEVELOPMENT FOUNDATION, published 2010)

B1: TGF-β type I receptor, HA-tagged (TβRI-HA) (receptor, UniProt P36897 34-503, looked up, not shown: small tags and cut ends)
chain: LQCFCHLCTKDNFTCVTDGLCFVSVTETTDKVIHNSMCIAEIDLIPRDRPFVCAPSSKTGSVTTTYCCNQDHCNKIELPTTVKSSPGLGPVELAAVIAGPVCFVCISLMLMVYICHNRTVIHHRVPNEEDPSLDRPFISEGTTLKDLIYDMTTSGSGSGLPLLVQRTIARTIVLQESIGKGRFGEVWRGKWRGEEVAVKIFSSREERSWFREAEIYQTVMLRHENILGFIAADNKDNGTWTQLWLVSDYHEHGSLFDYLNRYTVTVEGMIKLALSTASGLAHLHMEIVGTQGKPAIAHRDLKSKNILVKKNGTCCIADLGLAVRHDSATDTIDIAPNHRVGTKRYMAPEVLDDSINMKHFESFKRADIYAMGLVFWEIARRCSIGGIHEDYQLPYYDLVPSDPSVEEMRKVVCEQKLRPNIPNRWQSCEALRVMAKIMRECWYANGAARLTALRIKKTLSQLSQQEGIKM
notes: whole, on cells; Gift construct; also called TBβRI-HA; TBβRI
B2: Cripto mutant lacking the CFC domain (ΔCFC), Flag-tagged (ligand, not shown: small tags and cut ends)
chain: not shown
notes: also called Cripto ACFC mutant; ACFC
B3: endogenous human GRP78 (glucose regulated protein 78) at the cell surface (receptor)
chain: not shown
notes: whole, on cells; Endogenous protein; surface pool labelled with cell-impermeable biotin in the co-immunoprecipitations; also called BiP; cell surface GRP78

Legend:
[1] = molecular target: B3; experiment: anti-HA immunoprecipitation from surface-biotinylated 293T cells, avidin-HRP and anti-GRP78 blots
Procedure: (§1) Cell lysates and immunoprecipitations. Cell lysates were prepared in RIPA buffer as previously described (Gray et al., 2006). For immunoprecipitation experiments, 1-5 mg protein extract was pre-cleared by protein G-PLUS-Agarose beads for 2 hours at 4° C. The pre-cleared extracts were incubated as indicated with 40 μl anti-FLAG M2 gel beads or 20 μl G-PLUS-Agarose pre-incubated with 15 μl anti-GRP78 (KDEL), 10 μl anti-HA, or 25 μl anti-His for 2 hours at 4° C. Immunoprecipitates were subsequently washed 4 times with RIPA buffer and 2 times with 54K buffer (50 mM tris pH 7.9, 150 mM NaCl, 0.5% Triton X-100). The proteins were then eluted either by heating the beads at 95° C. in sample buffer or by the addition of 50 μl of Flag peptide (1 μg/μl) followed by removal of any remaining associated proteins by heating in sample buffer. Western blotting
(§2) The finding that GRP78 inhibits TGF-β signaling raised the possibility that it does so by binding directly to type I and/or type II TGF-β signaling receptors. […] Here the inventors have further tested whether GRP78 similarly co-immunoprecipitates with TBβRI and TBβRII. […] Each of these proteins was immunoprecipitated as bait and then immune complexes were assessed for the presence of GRP78. […] However, only Cripto pulled down endogenous GRP78 as detected both by avidin-HRP and anti-GRP78 antibody (FIG. 5).

[2] = molecular target: T1, human GRP78 with a hemagglutinin (HA) epitope at its C terminus (human, UniProt P11021 19-654); experiment: cell-free pull-down of biotinylated GRP78-HA on Cripto mutant beads
T1 construct: also called GRP78-HA; WT GRP78-HA
Excerpt: To further characterize the ability of Cripto to bind cell surface GRP78, the inventors tested whether GRP78 from one population of cells could bind mature Cripto isolated from a separate cell population in a cell free system. […] The beads were then washed again and bound proteins were eluted with Flag peptide and subjected to Western blotting using avidin-HRP, anti-GRP78 or anti-Cripto antibodies. […] Moreover, biotinylated (i.e. cell surface-labeled) GRP78 was specifically eluted from beads previously exposed to Cripto-Flag lysates but not from beads exposed to vector lysates.
In order to explore the interaction between Cripto and GRP78 further, the inventors used the method described above (FIG. 2B) to test whether cell surface labeled GRP78 binds Cripto mutants lacking either the EGF-like domain (AEGF) or CFC domain (ACFC). In this experiment, the inventors assessed the ability of biotinylated, HA-tagged GRP78 from one cell population to bind wild type and mutant forms of Cripto originating from separate cell populations.

[3] = molecular target: T2, TGF-β type II receptor, His-tagged (TβRII-His) (UniProt P37173 23-166, limits assumed); experiment: anti-His immunoprecipitation from surface-biotinylated 293T cells, avidin-HRP and anti-GRP78 blots
T2 construct: whole, on cells; Gift construct; also called TBβRII-His; TBβRII; not shown: His tag
Procedure: as §1, §2

T2 sequence (P37173 23-166 limits assumed): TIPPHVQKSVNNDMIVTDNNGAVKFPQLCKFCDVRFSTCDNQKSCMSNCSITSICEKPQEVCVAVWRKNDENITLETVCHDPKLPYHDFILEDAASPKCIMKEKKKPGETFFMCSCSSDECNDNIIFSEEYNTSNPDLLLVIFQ
T1 sequence (P11021 19-654 limits assumed): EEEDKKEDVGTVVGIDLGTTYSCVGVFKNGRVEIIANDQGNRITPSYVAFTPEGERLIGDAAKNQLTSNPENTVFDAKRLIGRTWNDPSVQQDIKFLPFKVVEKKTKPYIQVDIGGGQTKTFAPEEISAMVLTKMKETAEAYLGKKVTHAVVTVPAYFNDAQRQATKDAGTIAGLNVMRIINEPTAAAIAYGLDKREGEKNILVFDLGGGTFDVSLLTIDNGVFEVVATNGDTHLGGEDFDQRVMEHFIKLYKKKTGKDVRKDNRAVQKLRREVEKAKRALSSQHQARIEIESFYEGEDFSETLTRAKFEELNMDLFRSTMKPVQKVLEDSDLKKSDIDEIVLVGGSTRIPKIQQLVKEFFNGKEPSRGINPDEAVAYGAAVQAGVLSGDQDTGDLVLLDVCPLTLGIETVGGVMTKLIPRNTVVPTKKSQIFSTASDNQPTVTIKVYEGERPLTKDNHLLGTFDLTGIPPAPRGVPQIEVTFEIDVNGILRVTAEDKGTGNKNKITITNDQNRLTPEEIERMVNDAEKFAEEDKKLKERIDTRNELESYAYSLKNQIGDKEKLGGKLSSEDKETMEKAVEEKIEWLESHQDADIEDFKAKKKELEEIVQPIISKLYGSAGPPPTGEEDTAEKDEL

B1
binding result [1]: no binding

B2
binding result [2]: no binding

B3
binding result [3]: no binding
